Assay [1] concerns the target T1, Activin B (UniProt P09529 293-407).
T1 sequence (looked up): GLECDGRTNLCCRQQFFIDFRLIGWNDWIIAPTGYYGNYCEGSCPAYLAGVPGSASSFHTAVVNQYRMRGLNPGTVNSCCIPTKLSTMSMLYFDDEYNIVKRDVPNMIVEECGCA
The assay can be described thus: cell-based or functional assay.

In another assay the target is T2, BMP9 (UniProt Q9UK05 320-429).
T2 sequence (looked up): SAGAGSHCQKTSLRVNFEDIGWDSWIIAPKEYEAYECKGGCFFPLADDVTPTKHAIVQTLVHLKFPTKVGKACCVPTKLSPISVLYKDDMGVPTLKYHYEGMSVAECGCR
In words: Octet BLI, IgG, avid. In general terms: In BLI a coated tip is dipped into the sample, and binding shifts an interference pattern.

The target in the next assay is Human GDF8 (human, UniProt O14793 267-375). The assay can be described thus: Octet BLI, IgG, avid.
Another assay addresses T3, Human GDNF (human, UniProt P39905 78-211).
T3 sequence (looked up): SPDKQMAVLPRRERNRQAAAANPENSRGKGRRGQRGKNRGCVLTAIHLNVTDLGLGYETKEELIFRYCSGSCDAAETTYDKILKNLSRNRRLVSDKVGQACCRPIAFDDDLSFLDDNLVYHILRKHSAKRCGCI
The assay can be described thus: Octet BLI, IgG, avid.

A further assay concerns the target T4, GDF15 Fc (UniProt Q99988 197-308, limits assumed).
T4 construct: not shown: Fc part
T4 sequence (looked up): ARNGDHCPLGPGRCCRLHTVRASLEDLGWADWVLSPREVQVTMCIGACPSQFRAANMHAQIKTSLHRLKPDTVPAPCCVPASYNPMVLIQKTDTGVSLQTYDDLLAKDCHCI
In words: Octet BLI, IgG, avid.

The target in another assay is T5, BMP10 (UniProt O95393 317-424).
T5 sequence (looked up): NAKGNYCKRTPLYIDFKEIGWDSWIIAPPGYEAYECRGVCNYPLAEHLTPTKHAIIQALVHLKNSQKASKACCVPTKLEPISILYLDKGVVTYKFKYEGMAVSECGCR
The assay can be described thus: Octet BLI, IgG, avid.

The next assay has as its target Human GDF11 (human, UniProt O95390 299-407). In words: Octet BLI, IgG, avid.
The next assay addresses T6, Human GDF10 (human, UniProt P55107 369-478).
T6 sequence (looked up): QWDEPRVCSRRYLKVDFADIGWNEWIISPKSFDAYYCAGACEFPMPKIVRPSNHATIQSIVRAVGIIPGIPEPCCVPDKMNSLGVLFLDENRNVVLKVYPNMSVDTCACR
In words: Octet BLI, IgG, avid.

The target in assay [2] is T1, Activin B. The assay can be described thus: Octet BLI, IgG, avid.
Assay [3] concerns the target T7, Activin A (ligand of the Activin 2B Receptor/SMAD reporter assay) (UniProt P08476 311-426).
T7 sequence (looked up): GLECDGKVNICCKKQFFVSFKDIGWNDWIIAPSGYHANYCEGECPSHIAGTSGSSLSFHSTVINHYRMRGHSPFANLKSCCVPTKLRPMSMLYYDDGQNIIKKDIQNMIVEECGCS
The assay can be described thus: cell-based or functional assay.

The target of another assay is T8, Human Activin A Fc (human, UniProt P03970 309-424 (pig entry)).
T8 construct: also called human Activin A-Fc fusion; human Activin A-Fc antigen; not shown: Fc part
T8 sequence: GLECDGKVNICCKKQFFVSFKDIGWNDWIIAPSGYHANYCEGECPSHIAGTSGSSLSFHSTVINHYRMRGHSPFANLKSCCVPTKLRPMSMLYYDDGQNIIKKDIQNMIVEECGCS
In words: Octet BLI, IgG, avid. Here is the method:
ForteBio affinity measurements were performed on an Octet HTX generally as previously described (see, e.g., Estep et al, Mabs 5(2), 270-278 (2013)). Briefly, ForteBio affinity measurements were performed by loading IgGs on-line onto AHC sensors. Sensors were equilibrated off-line in assay buffer for 30 min and then monitored on-line for 60 seconds for baseline establishment. Sensors with loaded IgGs were exposed to 100 nM antigen for 3 minutes, and afterwards were transferred to assay buffer for 3 min for off-rate measurement. All kinetics were analyzed using the 1:1 binding model.
Binding affinity and epitope binning assays were performed with a ForteBio instrument as described herein.

“And” between values parts separate entries of the source, which are not always exact repeats. Identical values can stand only once.

Human GDF11, sequence (O95390 299-407 limits assumed): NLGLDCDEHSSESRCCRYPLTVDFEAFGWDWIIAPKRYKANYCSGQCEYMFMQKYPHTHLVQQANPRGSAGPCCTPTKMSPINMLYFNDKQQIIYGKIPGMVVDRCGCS

B1: anti-Activin A antibody Clone A (IgG) (antibody, V domains shown)
VH: QVQLVQSGAEVKKPGASVKVSCKASGYTFTGYYMHWVRQAPGQGLEWMGSINPSSGGTNYAQKFQGRVTMTTDTSTSTAYMELRSLRSDDTAVYYCARARDIAAAGLGAFDYWGQGTLVTVSS
VL: EIVLTQSPGTLSLSPGERATLSCRASQSVRSSYLAWYQQKPGQAPRLLIYGASSRATGIPDRFSGSGSGTDFTLTISRLEPEDFAVYYCQQYVSYPRTFGGGTKVEIKR
notes: IgG format; also called Antibody A
As usually defined, the Kd is a measure of binding affinity in units of concentration. Low values mean a tighter complex, high ones a looser complex. In the case of B1, the “Activin B-ActRIIB SMAD IC50 pM” value with Activin B [1] was over 100000 pM. Moreover, the binding result with BMP9, in the assay with Human GDF8, with Human GDNF, in the assay with GDF15 Fc, with BMP10 and with Human GDF11 was “no binding (tested: 100 nM antigen)” in each case. Besides, the binding result in the assay with Human GDF10 and in the assay with Activin B [2] was “no binding (tested: 100 nM antigen)” in each case. Besides, the “Activin A-ActRIIB SMAD IC50 pM” value in assay [3] was 324 pM and 282 pM and 361 pM. Besides, in the assay with Human Activin A Fc, the Kd was determined as 0.81 nM.

B2: anti-Activin A antibody Clone F (IgG) (antibody, V domains shown)
VH: QVQLVQSGAEVKKPGASVKVSCKASGYTFTGYHIHWVRQVPGQGLEWMGVISAYSGDTNYAQKLQGRVTMTTDTSTSTAYMELRSLRSDDTAVYYCARARDIAALGLGAFDYWGQGTLVTVSS
VL: EIVLTQSPATLSVSPGERATLSCRASQSVSSNLAWYQQKPGQAPRLLIYGASDRATGIPARFSGSGSGTEFTLTISSLQSEDFAVYYCIQYSNYPRTFGGGTKVEIKR
notes: IgG format; also called Antibody F
As to B2, the “Activin B-ActRIIB SMAD IC50 pM” value in the assay with Activin B [1] came to 24900 pM. Moreover, the binding result in the assay with BMP9, in the assay with Human GDF8, with Human GDNF, with GDF15 Fc, with BMP10 and in the assay with Human GDF10 was “no binding (tested: 100 nM antigen)” in each case. Besides, the results for the Kd with Human GDF11, in the assay with Activin B [2] and with Human Activin A Fc were 18.7 nM, 80.1 nM and 0.492 nM, respectively.

B3: anti-Activin A antibody Clone H (IgG) (antibody, V domains shown)
VH: QVQLVQSGAEVKKPGASVKVSCKASGYTFTGYHIHWVRQAPGQGLEWMGHISAYSGTTNYAQKLQGRVTMTTDTSTSTAYMELRSLRSDDTAVYYCARARDIAAAGLGAFDYWGQGTLVTVSS
VL: EIVLTQSPGTLSLSPGERATLSCRASQSVRSSYLAWYQQKPGQAPRLLIYGASSRATGIPDRFSGSGSGTDFTLTISRLEPEDFAVYYCQQYSNYPRTFGGGTKVEIKR
notes: IgG format; also called Antibody H
As to B3, the “Activin B-ActRIIB SMAD IC50 pM” value with Activin B [1] was over 100000 pM. Also, the binding result with BMP9, with Human GDF8, with Human GDNF, with GDF15 Fc, in the assay with BMP10 and with Human GDF11 was “no binding (tested: 100 nM antigen)” each time. Besides, the binding result in the assay with Human GDF10 is “no binding (tested: 100 nM antigen)”. In [3], the “Activin A-ActRIIB SMAD IC50 pM” value came out at 36.9 pM. The molecule further had a Kd in the assay with Human Activin A Fc of 0.666 nM.

B4: anti-Activin A antibody Clone C (IgG) (antibody, V domains shown)
VH: QVQLVQSGAEVKKPGASVKVSCKASGYTFPGYHMHWVRQAPGQGLEWMGVINPSSGDTNYAQKFQGRVTMTRDTSISTAYMELSRLRSDDTAVYYCARARDIAALGLGAFDYWGQGTLVTVSS
VL: EIVLTQSPGTLSLSPGERATLSCRASQSVSSSYLAWYQQKPGQAPRLLIYGASSRAGGIPDRFSGSGSGTDFTLTISRLEPEDFAVYYCQQYVAYPRTFGGGTKVEIKR
notes: IgG format
Regarding B4, in the assay with Activin B [1], the “Activin B-ActRIIB SMAD IC50 pM” value is over 100000 pM. Moreover, the binding result in the assay with BMP9, with Human GDF8, with Human GDNF, with GDF15 Fc, with BMP10 and with Human GDF10 was “no binding (tested: 100 nM antigen)” throughout. Further, the results for the Kd with Human GDF11, in the assay with Activin B [2] and in the assay with Human Activin A Fc were 12.7 nM, 148 nM and 0.477 nM, respectively.

B5: anti-Activin A antibody Clone E (IgG) (antibody, V domains shown)
VH: QVQLVQSGAEVKKPGASVKVSCKASGYTFHGYNMHWVRQAPGQGLEWMGSINPYSGYTIYAQKFQGRVTMTRDTSISTAYMELSRLRSDDTAVYYCARARDIAAAGLGAFDYWGQGTLVTVSS
VL: EIVLTQSPGTLSLSPGERATLSCRASQSVRSSYLAWYQQKPGQAPRLLIYGASSRATGIPDRFSGSGSGTDFTLTISRLEPEDFAVYYCQQYVSYPRTFGGGTKVEIKR
notes: IgG format; also called Antibody E
For B5, the “Activin B-ActRIIB SMAD IC50 pM” value with Activin B [1] was 83600 pM. Further, the binding result with BMP9, with Human GDF8, with Human GDNF, in the assay with GDF15 Fc, in the assay with BMP10 and with Human GDF10 was “no binding (tested: 100 nM antigen)” in each case. Besides, the values for the Kd in the assay with Human GDF11 and with Human Activin A Fc were 27.3 nM and 0.551 nM, respectively. The “Activin A-ActRIIB SMAD IC50 pM” value in assay [3] amounted to 16.5 pM.

B6: anti-Activin A antibody Clone K (IgG) (antibody, V domains shown)
VH: QVQLVQSGAEVKKPGSSVKVSCKASGGTSSSYAISWVRQAPGQGLEWMGYIIPAFGTANYAQKFQGRVTITADESTSTAYMELSSLRSEDTAVYYCARPVRTYPLGKYFYHWGQGTLVTVSS
VL: EIVLTQSPATLSLSPGERATLSCRASQSVSSYLAWYQQKPGQAPRLLIYDASNRATGIPARFSGSGSGTDFTLTISSLEPEDFAVYYCQQDSIFPPYTFGGGTKVEIKR
notes: IgG format; also called Antibody K
With B6, in the assay with Activin B [1], the “Activin B-ActRIIB SMAD IC50 pM” value was 30700 pM. Further, the binding result with BMP9, in the assay with Human GDF8, with Human GDNF, with GDF15 Fc, in the assay with BMP10 and in the assay with Human GDF11 was “no binding (tested: 100 nM antigen)” throughout. Further, the binding result in the assay with Human GDF10 and in the assay with Activin B [2] was “no binding (tested: 100 nM antigen)” each time. This molecule also returned a Kd in the assay with Human Activin A Fc of 0.43 nM.

B7: anti-Activin A antibody Clone O (IgG) (antibody, V domains shown)
VH: QVQLVQSGAEVKKPGSSVKVSCKASGGTFSNYDINWVRQAPGQGLEWMGGIIPVFGTAAYAQKFQGRVTITADESTSTAYMELSSLRSEDTAVYYCAREARDGYRYAFQHWGQGTLVTVSS
VL: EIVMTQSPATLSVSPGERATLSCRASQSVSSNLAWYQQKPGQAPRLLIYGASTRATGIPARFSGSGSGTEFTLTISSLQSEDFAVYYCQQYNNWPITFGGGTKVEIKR
notes: IgG format; also called Antibody O
Regarding B7, the binding result with BMP9, in the assay with Human GDF8, with Human GDNF, in the assay with GDF15 Fc, in the assay with BMP10 and with Human GDF11 was “no binding (tested: 100 nM antigen)” each time. Moreover, the binding result with Human GDF10 and with Activin B [2] was “no binding (tested: 100 nM antigen)” each time. The “Activin A-ActRIIB SMAD IC50 pM” value in assay [3] was 5400 pM. In addition, the Kd with Human Activin A Fc was 0.442 nM.

(Values after patent US20260265358A1 (BYOMASS, published 2026).)
